Laboratory results reported in the DeepSol protein solubility set.

Assay: soluble on expression in E. coli; label from the status in PepcDB or PDB records

| Sequence | soluble on expression in E. coli |
| --- | --- |
| QSQGVLSSFPAPQAVQDNPAMPTSSGSEGNVKLCSLEEAQRIWKQKSAEIYPIMDKSSRTRLALIICNEEFDSIPRRTGAEVDITGMTMLLQNLGYSVDVKKNLTASDMTTELEAFAHRPEHKTSDSTFLVFMSHGIREGICGKKHSEQVPDILQLNAIFNMLNTKNCPSLKDKPKVIIIQAARGDSPGVVWFKDSVGVSGNLSLPTTEEFEDDAIKKAHIEKDFIAFCSSTPDNVSWRHPTMGSVFIGRLIEHMQEYACSCDVEEIFRKVRFSFEQPDGRAQMPTTERVTLTRCFYLFPGH | soluble |
| QSSKSPLTAALGLDISGTPIITDLQKMPHGLIAGATGSGKSVCINSLLVSLLYKATPDQLKLLLIDPKMVELAPYNRIPHLVSPVITDAKAATVALKWAVEEMERRYQLFSHTGVRNMEKYNEYASHPDHTGEKLPYILIVIDELADLMMVAPNDVEESISRIAQKARACGIHMIVATQRPSV | not soluble |
| QSSSSAIEATIEGNSQTTISQTSHFIQSYIKKLETTSTGLTQQTDVLAYAENPSQDKVEGIRDLFLTILKSDKDLKTVVLVTKSGQVISTDDSVQMKTSSDMMAEDWYQKAIHQGAMPVLTPARKSDSQWVISVTQELVDAKGANLGVLRLDISYETLEAYLNQLQLGQQGFAFIINENHEFVYHPQHTVYSSSSKMEAMKPYIDTGQGYTPGHKSYVSQEKIAGTDWTVLGVSSLEKLDQVRSQL | not soluble |
| QTIRSASDIRDVFINAGIKGEEYDAAWNSFVVKSLVAQQEKAAADVQLRGVPAMFVNGKYQLNPQGMDTSNMDVFVQQYADTVKYLSEKKGGGTGAQYEDGKQYTTLEKPVAGAPQVLEFFSFFCPHCYQFEEVLHISDNVKKKLPEGVKMTKYHVNFMGGDLGKDLTQAWAVAMALGVEDKVTVPLFEGVQKTLIK | soluble |
| QVIEVLNKQVADWSVLFTKLHNFHWYVKGPQFFTLHEKFEELYTESATHIDEIAERILAIGGKPVATMKEYLEISSIQEAAYGETAEGMVEAIMKDYEMMLVELKKGMEIAQNSDDEMTSDLLLGIYTELEKHAWMLRAFLN | soluble |
| QVPILHRDADFLLRALQPDDFVRTSRYENANREHLAPWEPLRDPGYFSVDNARARTLLQVASMDEGEALLLLLLDPDDGEVLGRCSYTNIVRGVFQACHLGFSLAAAAQGRGLMARALRVANRYCFEQLGLHRIMASHLPRNARSERLLESLGFEKEGYARAYLKIAGVWEDHVLRALVDAPR | not soluble |
| QVQLVESGGGLVQPGGSLRLSCAASGFTFNSYWINWVRQAPGKGLEWVSGIAYDSSNTLYADSVKGRFTISRDNSKNTLYLQMNSLRAEDTAVYYCARGLGAFHWDMQPDYWGQGTLVTVSSASTKGPSVFPLAPSSKSTSGGTAALGCLVKDYFPEPVTVSWNSGALTSGVHTFPAVLQSSGLYSLSSVVTVPSSSLGTQTYICNVNHKPSNTKVDKKVEPKSCDKTH | soluble |
| QVQLVQSGPELKKPGETVKISCKASGYMFTNYGMNWVKQAPGKALKWMGWINPYTGESTFADDFKGRFAFFLETSATTAYLQINNLKNEDTATYFCARGTTIVWAMDYWGQGTSVTVSSASTKGPSVFPLAPSSKSTSGGTAALGCLVKDYFPEPVTVSWNSGALTSGVHTFPAVLQSSGLYSLSSVVTVPSSSLGTQTYICNVNHKPSNTKVDKKVEPLSCDKTHT | soluble |
| QYQDYASFFRNNKSVTHLIVPSNFIGAGVSKYKDWKRSNIPYTQLDMAVVQNRPAGSLRRFVVLVVGETTRAANWGLNGYSRQTTPLLAARGDEIVNFPQVRSCGTSTAHSLPCMFSTFDRTDYDEIKAEHQDNLLDIVQRAGVEVTWLENDSGCKGVCGKVPNTDVTSLNLPEYCRNGECLDNILLTKFDEVLNKNDKDAVLILHTIGSHGPTYYERYTEAERKFTPTCDTNEINKCTRATLVNTYDNTVLYVDQFIDKVIRKLENRDDLESVVHYVSDHGESLGENG | not soluble |
| RAQRKMSAQSLPAATPPTQKPPRIIRPRPPSRSRAAQSPGPPHNGSSPQELPRNSNDAPTPMCTPIFWEPPAASLKPPALLPPSASRASLDSQTSPDSPSSTPTPSPVSRRSASPEPAPRSPVPPPKPSGSPCTPLLPMAGVLAQNGSASAPGTVRRLAGRFEGGAEGRAQDADAPEPGLQARADVNGEREAPLTGSGSQENGAPDAGLACPPCCPCVCHTTRPGLELRWVPVGGYEEVPRVPRRASPLRTSRSRPHPPSIGHPAVVLTSYRSTAERKLLPLLKPPKPTRVRQDATIFGDPPQPDLDLLSEDGIQTGDSPDEAPQNTPPATVEGREEEGLEVLKEQNWELPLQDEPLYQTYRAAVLSEELWGVGEDGSPSPANAGDAPTFPRPPGPRNTLWQELPAVQASGLLDTLSPQERRMQESLFEVVTSEASYLRSLRLLTDTFVLSQALRDTLTPRDHHTLFSNVQRVQGVSERFLATLLSRVRSSPHISDLCDVVHAHAVGPFSVYVDYVRNQQYQEETYSRLMDTNVRFSAELRRLQSLPKCERLPLPSFLLLPFQRITRLRMLLQNILRQTEEGSSRQENAQKALGAVSKIIERCSAEVGRMKQTEELIRLTQRLRFHKVKALPLVSWSRRLEFQGELTELGCRRGGVLFASRPRFTPLCLLLFSDLLLITQPKSGQRLQVLDYAHRSLVQAQQVPDPSGPPTFRLSLLSNHQGRPTHRLLQASSLSDMQRWLGAFPTPGPLPCSPDTIYEDCDCSQELCSESSAPAKTEGRSLESRAAPKHLHKTPEGWLKGLPGAFPAQLVCEVTGEHERRRHLRQNQRLLEAVGPSSGTPNAPPP | soluble |
| RELHPVAPLLDNLTSALNKVYQRKGVNISLDISPEISFVGEQNDFVEVMGNVLDNACKYCLEFVEISARQTDEHLYIVVEDDGPGIPLSKREVIFDRGQRVDTLRPGQGVGLAVAREITEQYEGKIVAGESMLGGARMEVIFGRQHSAPKDE | soluble |
| RFEPSFLDKLFDDEPHVPAPAAMRQLSLEELKNTVARDVEAILNTRIALTEEDLAALPECQRSVLTYGLNDFAGLSLASHYDRTFICKSIQQAIARHEPRLQQVQVTFELNEQSTNALYFAIQALLVVHPAEEPVTFDAMLQPS | not soluble |
| RGKDITVWFQRLLDRMTDFFSSLSGRRKVCSKPRFRVRRTTNPAAKKSGTDPKIRETKTSIDEILDKIRISGYASLTAEEKRHLFDQSKRL | not soluble |
| RGKGKDIVMNPLSFGEFVKVARPDIYSKLPRIKRITKVKECSKLRPWREELYDLFILYLKSGGFPRAVKDILEGESIAELHEPTWNSIQKFYGPL | not soluble |
| RGRLRIFFGFAAGVGKTYGMLTEAHELLMMGKHVVVGYIEPHDRPDTNRLLEGLPQIPPKNIFYKQMVLTEPDIDQIIQQKPEIVLIDELAHSNAEGSRNRKRYQDIDELLNAGIDVFTTVNVQHIESLNDIVEEVTGIEVKETVPDTFLRQATIRVIDVEPDELIERLEQGKIYANENAKRALKNFFIPQKLDQLRGLAIQRASDHINRISGKTIG | not soluble |
| RGSHMCDAFVGTWKLVSSENFDDYMKEVGVGFATRKVAGMAKPNMIISVNGDVITIKSESTFKNTEISFILGQEFDEVTADDRKVKSTITLDGGVLVHVQKWDGKSTTIKRKREDDKLVVECVMKGVTSTRVYERA | soluble |
| RHYPEVKKLVLLSTAVNAMEWPQIIENSKQVITEAKEVTLKNSPMFKRYQKKVTETPWTSTLQFKKMVALAKPVFEHIEIPTFIAQGSADPIVPAEKSVNFLMESIPGPKELFILEGSKHVICQDEQADKLFAAVLTFLQK | not soluble |
| RILYRHSNAMQHEYNQMMQSIDERKQYQVGKIKMGTGDAWWPLFVKQALNEHLTKQPSASTHVEFGNHLGLMDSLINEQIEFFIGHEIVGLSSKCDVTFIPLFQTVDAYFVSSNHPLLGKTVTEEMLHEYPALSVTYDAKKFAHVIDNPIPKQNERERQQLDDRPTYEVDSLLASIDVLKESVAVMSYTRHLQSYLESFGLRCLTMENEPNPGTVGIYRHRRETSESHLDLIAGITQRAKLLN | not soluble |
| RKPEEEPQPIDDSSMQFLLAAKDAVSGGIKQNPDFSAQDLAEKMCMSPSQLNRKLTSVVGCSTIGYIQQIKIKLACKLLADESKNISDISIEAGFSDPAYFSRTFKRYMNCSPSQYRQKLLAMPGSDKETV | not soluble |
| RLKALRKEQGKALKKDKKLAEPKARVYVLDFDGDIKASATESMRHEITALLTLATDKDEVVLRLESGGGMVHSYGLASSQLARIRQAGIPLTVCIDKVAASGGYMMACIGNKIISAPFAILGSIGVVAQLPNVNRLLKKHDIDFEVLTAGEYKRTLTVFGENTEKGREKFQQDLDITHDLFKNFVASYRPQLSIDEVATGEVWLGMAAVDKLLVDELKTSDE | not soluble |
| RQEQTETLAEERAETVANLEELNALILQRMRTGILVVDSRQAILLANQAALGLLRQDDVQGASLGRHSPMLMHCMKQWRLNPSLRPPTLKVVPDGPTVQPSFISLNREDDQHVLIFLEDISQIAQQAQQMKLAGLGRLTAGIAHEIRNPLGAISHAAQLLQESEELDAPDRRLTQIIQDQSKRMNLVIENVLQLSRRRQAEPQQLDLKEWLQRFVDEYPGRLRNDSQLHLQLGAGDIQTRMDPHQLNQVLSNLVQNGLRYSAQAHGRGQVWLSLARDPESDLPVLEVIDDGPGVPADKLNNLFEPFFTTESKGTGLGLYLSRELCESNQARIDYRNREEGGGCFRITFA | not soluble |
| RQLTVLERVAPTITGNLENQTTSIGESIEVSCTASGNPPPQIMWFKDNETLVEDSGIVLKDGNRNLTIRRVRKEDEGLYTCQACSVLGCAKVEAFFIIEGAQEKTNLE | soluble |
| RRNDDAGMIIPSFGISYDDQYDLIDEIERISKLTDVDEIKKSMDAIDGKKMDFDLGGVVAVGIPNKFLSATVYGKLYTESFVQPNVDTSGADPLTDSYVQGVSIGVAEAGVSLAKYTNFMNQHLSFGITPKLQRIYTYSYATSFKNFDTKDLREHETAETMFNLDAGALWFFGPYRLGISAKNLIGRDVKTKSFQYNTDTIQSYEYSMRPVYTVGAGIVADYFTMSVDYDLNEEKRFSSFDDNTQMIRAGFEIDILRQMALRGGYMKNLARSNDEGTITAGIGLSPLNLIELDISARYTNENAMGASINFLATY | not soluble |
| RRTAEAERDRLNELLQIFTAAVPGVVYAKDLEGRMLVANRGTAELVGKPPEFFIGKTDLEFLDDEQQARVLMETDQRIMQSNVSEQIEEKVNLADGSAAIWLSTKAPLLDRNGDVIGLIGSSIDVT | not soluble |
| RRTTNDGFHLLKAGGSCFALISGTANQVKCYRFRVKKNHRHRYENCTTTWFTVADNGAERQGQAQILITFGSPSQRQDFLKHVPLPPGMNISGFTASLDF | soluble |
| RSFGLRASLVDALRKGKIQVAYQPLRVLDSGRMAGVEALARWTYDEVGPISPVTFLGWVEAMGLRQPFTRYIVQAALDGMKTRMAGDAPFYLSINVFPEDLEDESFLDFLTQSVRERELSPGSVVLEVTESAVFSTASPSVLFRRFRAAGFRIFLDDFGVGYSNLGNIIRWEVDGIKLDRIFMQSLGDFDSAAPVLDQVIEMARQLDLHLVIEGIEVRSQADYIFKRAPHAVGQGWLFGRPGPACALPAA | not soluble |
| RTDTIMVVNVGNHAKKIKMVSFMRDTLINIPGYSYNDNSYDLKLNSAFNLGEQEDHHGAEYVRRALKHNFDIDIKYYVMVDFETFAEAIDTLFPNGVKIDAKFATVGGVAVDSVEVPDDLRMKNGVVPNQTIEVGEQRMDGRTLLNYARFRKDDEGDFGRTVRQQQVMSAVMSQIKD | not soluble |
| RTFRHYDAYRSQSGTTGTDAARFILSQSGINDVGVQKISGDLTDNYNGQTKILSLSEATADSTSVAAIGVAAHECGHAVQDHVNYWPMRLRTALVP | not soluble |
